From patent publication US20200164071A1 (GENSUN BIOPHARMA, published 2020)

B1: TP-M8T10P1 (TP-83) (bispecific antibody)
heavy: QVQLVQSGAEVKKPGASVKVSCKASGYTFTSYYMHWVRQAPGQGLEWMGIINPSGGRTSYAQMFQGRVTMTRDTSTSTVYMELSSLRSEDTAVYYCARDREEQWPVGGFDYWGQGTLVTVSS
light: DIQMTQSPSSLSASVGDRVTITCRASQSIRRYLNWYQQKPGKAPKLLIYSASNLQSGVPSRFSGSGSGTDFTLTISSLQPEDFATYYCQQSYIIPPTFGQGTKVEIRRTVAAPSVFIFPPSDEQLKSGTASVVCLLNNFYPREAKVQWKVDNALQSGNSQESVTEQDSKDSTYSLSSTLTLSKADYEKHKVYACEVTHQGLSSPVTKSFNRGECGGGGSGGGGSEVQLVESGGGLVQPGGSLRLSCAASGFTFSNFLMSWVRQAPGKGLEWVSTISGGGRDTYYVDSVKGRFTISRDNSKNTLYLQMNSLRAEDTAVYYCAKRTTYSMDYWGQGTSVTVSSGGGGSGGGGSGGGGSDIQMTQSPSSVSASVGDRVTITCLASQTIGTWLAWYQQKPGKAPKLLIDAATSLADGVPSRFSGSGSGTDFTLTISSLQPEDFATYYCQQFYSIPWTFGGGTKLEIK
notes: Anti-TIGIT x anti-PD-1; The tie is in embodiment wording ('about 80% to about 100% homologous to')
B2: PD-02 mab (antibody, V domains shown)
VH: QVQLVQSGAEVKKPGASVKVSCKASDYTFTNSYLYWLRQAPGQGLEWMGGINPSNGGTNFNEKFKTRTTSTRDTSISTAYMELSRLRSDDTVVYYCTRRDYNYDGGFDSWGQGTLVTVSS
VL: DIQMTQSPSSLSASVGDRVTFTCRASSTLYSNYLHWYQQKPGKAPKLLIYRASFLASGVPSRFSGSGSGTDFTLTISSLQPEDFATYYCQQGSSIPLTFGGGTKVEIK
B3: TP-M9T10P1 (TP-93) (bispecific antibody, human IgG4 S228P, kappa)
heavy: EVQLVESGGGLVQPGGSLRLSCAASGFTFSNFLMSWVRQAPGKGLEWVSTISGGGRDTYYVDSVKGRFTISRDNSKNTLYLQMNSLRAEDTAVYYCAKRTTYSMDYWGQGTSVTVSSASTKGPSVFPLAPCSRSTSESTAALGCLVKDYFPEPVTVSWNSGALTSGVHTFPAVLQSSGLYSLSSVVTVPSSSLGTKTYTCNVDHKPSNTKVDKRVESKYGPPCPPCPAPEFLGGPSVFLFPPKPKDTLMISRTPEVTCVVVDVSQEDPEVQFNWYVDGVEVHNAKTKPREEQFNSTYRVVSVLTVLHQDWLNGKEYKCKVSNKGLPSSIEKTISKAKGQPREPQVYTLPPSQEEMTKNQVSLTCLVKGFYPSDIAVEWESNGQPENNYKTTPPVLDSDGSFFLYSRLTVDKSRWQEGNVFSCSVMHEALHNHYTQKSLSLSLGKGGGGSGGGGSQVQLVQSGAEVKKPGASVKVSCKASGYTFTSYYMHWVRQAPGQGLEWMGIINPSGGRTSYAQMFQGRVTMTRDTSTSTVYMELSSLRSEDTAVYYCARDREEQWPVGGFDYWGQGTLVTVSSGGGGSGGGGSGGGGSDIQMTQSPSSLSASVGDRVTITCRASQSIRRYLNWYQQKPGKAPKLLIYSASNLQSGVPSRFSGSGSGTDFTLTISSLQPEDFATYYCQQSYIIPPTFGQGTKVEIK
light: DIQMTQSPSSVSASVGDRVTITCLASQTIGTWLAWYQQKPGKAPKLLIDAATSLADGVPSRFSGSGSGTDFTLTISSLQPEDFATYYCQQFYSIPWTFGGGTKLEIKRTVAAPSVFIFPPSDEQLKSGTASVVCLLNNFYPREAKVQWKVDNALQSGNSQESVTEQDSKDSTYSLSSTLTLSKADYEKHKVYACEVTHQGLSSPVTKSFNRGEC
notes: as for B1

What was measured:
[1] = molecular target: T1, human TIGIT on CHO-K1 cells (human, UniProt Q495A1 23-244); test: flow cytometry blocking assay: PVR (hPVR-mIg, m14, by Examples 4 and 6) on human TIGIT CHO-K1 cells (Example 16); title: Blocking PVR binding to TIGIT
T1 construct: also called hu TIGIT; TIGIT+CHO-K1 cells
T1 sequence: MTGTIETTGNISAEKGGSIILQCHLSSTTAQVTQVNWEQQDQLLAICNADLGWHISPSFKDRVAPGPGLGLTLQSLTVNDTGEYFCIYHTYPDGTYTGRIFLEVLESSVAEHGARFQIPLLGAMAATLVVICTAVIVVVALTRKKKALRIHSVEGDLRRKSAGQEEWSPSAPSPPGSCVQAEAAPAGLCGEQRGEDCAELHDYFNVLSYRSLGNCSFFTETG

[2] = molecular target: T2, human PD-1 on CHO-K1 cells (human, UniProt Q15116 25-288); test: flow cytometry blocking assay: FITC human PD-L1-Fc on human PD-1 CHO-K1 cells (Examples 11 and 16); title: Blocking PD-L1 binding to PD-1
T2 construct: also called Human PD-1 transfected CHO-K1 cells
Description: (§1) Human or Cyno PD-1 transfected CHO-K1 cells were washed with FACS buffer (0.5% BSA 2 mM EDTA in PBS) and re-suspended at a concentration of 10⁶ cells/ml. […] The cells were then washed and re-suspended in 30 μl 7 AAD solution; 35 μl 10% neutral buffered formalin solution was then added and incubated for 15 mins. before analysis using the iQue intellicyt system.

[3] = molecular target: T3, His tagged human PD-1 protein (human, UniProt Q15116 25-170, limits assumed); test: bio-layer interferometry (Octet RED96), antibody on anti-human IgG capture biosensors, His tagged human PD-1 as analyte, 1:1 global fit (Example 12)
T3 construct: also called huPD-1-His; not shown: His tag
Description: […] was carried out using the Octet RED96 system (ForteBio Octet RED96 System) to characterize the binding kinetics of antibodies against His tagged human PD-1 protein. 20 nM of antibody was loaded onto the anti-human IgG capture biosensors. Association of analyte (His tagged human PD-1 protein) was observed by placing the biosensors in wells containing 2 or 3 fold serial dilution of analytes (72 nM being the highest concentration) for 5 mins. Dissociation was measured after transfer of the biosensors into kinetic buffer alone and monitoring of the interferometry signal for 10 minutes. The observed on and off rates (Ka and Kd) were fit using a 1:1 binding global fit model comprising at least 5 concentrations tested, and the equilibrium binding constant KD was then calculated.

[4] = molecular target: T4, cyno PD-1 on CHO-K1 cells (cyno); test: flow cytometry blocking assay of Example 11, PD-L1 on cyno PD-1 CHO-K1 cells; cyno taken from the legend paragraph 42 ('cyno-hu'), while Example 11 speaks of human PD-1 and human PD-L1 for this figure
T4 construct: whole, on cells; also called cyno hu PD-1; Cyno PD-1 transfected CHO-K1 cells
Description: as §1

[5] = molecular target: T2, human PD-1 on CHO-K1 cells; test: flow cytometry blocking assay: FITC human PD-L1-Fc on human PD-1 CHO-K1 cells (Example 11)
Description: as §1

[6] = molecular target: T2, human PD-1 on CHO-K1 cells; test: flow cytometry blocking assay: FITC human PD-L1-Fc on human PD-1 CHO-K1 cells (Example 11; the legend paragraph 42 calls it binding to hu PD-L1)
Description: as §1

T2 sequence (Q15116 25-288): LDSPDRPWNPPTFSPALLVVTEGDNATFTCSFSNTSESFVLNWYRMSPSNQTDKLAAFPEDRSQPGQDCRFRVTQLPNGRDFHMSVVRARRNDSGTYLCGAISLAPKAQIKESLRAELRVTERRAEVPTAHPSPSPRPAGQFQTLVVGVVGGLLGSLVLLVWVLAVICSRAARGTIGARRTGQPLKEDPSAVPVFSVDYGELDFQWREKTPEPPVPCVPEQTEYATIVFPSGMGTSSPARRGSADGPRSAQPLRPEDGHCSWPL
T3 sequence (Q15116 25-170 limits assumed): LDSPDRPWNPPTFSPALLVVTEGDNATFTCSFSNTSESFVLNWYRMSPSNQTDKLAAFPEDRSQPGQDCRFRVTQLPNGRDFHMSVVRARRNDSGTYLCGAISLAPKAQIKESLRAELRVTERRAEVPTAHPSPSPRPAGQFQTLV

Row | Binder | IC50 [1] [nM] | IC50 [2] [nM] | Kd [3] [nM] | koff [3] [s⁻¹] | kon [3] [M⁻¹ s⁻¹] | IC50 [4] [nM] | IC50 [5] [nM] | IC50 [6] [nM]
1 | B1 | 0.21 | 1.8 | – | – | – | – | – | –
2 | B2 | – | – | 3.7 | 0.000395 | 106000 | 1.72 | 2.05 | 0.54
3 | B3 | 0.4 | 1.4 | – | – | – | – | – | –
